Test results as given in the Immune Epitope Database (IEDB).

Key:
HLA-A*24:02 = test: IEDB peptide-MHC binding, purified MHC/competitive/fluorescence; filed as Kd, often an IC50 or EC50 that approximates it; ≥ and ≤ were set here for values at or beyond the usual limits of such assays
HLA-C*14:02 = test: IEDB peptide-MHC binding, purified MHC/direct/fluorescence; filed as Kd, often an IC50 or EC50 that approximates it; ≥ and ≤ were set here for values at or beyond the usual limits of such assays
HLA-A*24:03 [1] = test: as above
HLA-C*15:02 = test: as above
HLA-B*46:01 = test: as above; settings: source organism: Toxoplasma gondii RH
HLA-B*15:17 = test: as above; settings: source organism: Toxoplasma gondii RH
HLA-A*02:12 = test: as above; settings: source organism: Toxoplasma gondii RH
HLA-A*29:02 = test: as above; settings: source organism: Toxoplasma gondii RH
HLA-A*02:19 = test: as above; settings: source organism: Toxoplasma gondii RH
HLA-A*03:01 = test: as above; settings: source organism: Toxoplasma gondii RH
HLA-B*15:01 = test: as above; settings: source organism: Toxoplasma gondii RH
HLA-A*02:03 = test: as above; settings: source organism: Toxoplasma gondii RH
HLA-B*57:01 = test: as above; settings: source organism: Toxoplasma gondii RH
HLA-A*02:11 = test: as above; settings: source organism: Toxoplasma gondii RH
HLA-B*27:03 = test: as above; settings: source organism: Toxoplasma gondii RH
HLA-B*18:01 = test: as above; settings: source organism: Toxoplasma gondii RH
HLA-A*02:01 = test: as above; settings: source organism: Toxoplasma gondii RH
HLA-A*69:01 = test: as above; settings: source organism: Toxoplasma gondii RH
HLA-B*51:01 [2] = test: as above; settings: source organism: Toxoplasma gondii RH
HLA-A*26:01 = test: as above; settings: source organism: Toxoplasma gondii RH
HLA-A*02:16 = test: as above; settings: source organism: Toxoplasma gondii RH
HLA-A*24:03 [3] = test: IEDB peptide-MHC binding, purified MHC/competitive/fluorescence; filed as Kd, often an IC50 or EC50 that approximates it; ≥ and ≤ were set here for values at or beyond the usual limits of such assays; settings: source organism: Escherichia coli str. K-12 substr. MG1655
HLA-C*06:02 = test: IEDB peptide-MHC binding, purified MHC/direct/fluorescence; filed as Kd, often an IC50 or EC50 that approximates it; ≥ and ≤ were set here for values at or beyond the usual limits of such assays; settings: source organism: Cryptosporidium parvum
HLA-C*05:01 = test: as above; settings: source organism: Variola virus
HLA-B*54:01 = test: IEDB peptide-MHC binding, purified MHC/competitive/radioactivity; filed as Kd, often an IC50 or EC50 that approximates it; ≥ and ≤ were set here for values at or beyond the usual limits of such assays; settings: source organism: Vaccinia virus WR
HLA-B*07:02 = test: as above; settings: source organism: Vaccinia virus WR
HLA-B*35:01 = test: as above; settings: source organism: Vaccinia virus WR
HLA-B*53:01 = test: as above; settings: source organism: Vaccinia virus WR
HLA-B*51:01 [4] = test: as above; settings: source organism: Vaccinia virus WR
[5] = source organism: Staphylococcus aureus subsp. aureus N315
[6] = source organism: Cryptosporidium parvum

KWMMAMRYPI
Kd (HLA-A*24:02; source organism: Influenza A virus (A/chicken/Fujian/25/00(H9N2))): 3.2 nM

RTQAVIYAF
Kd (HLA-C*14:02; [5]): 133 nM | Kd (HLA-A*24:03 [1]; source organism: Bacillus anthracis): 1.3 nM | Kd (HLA-C*15:02; [5]): 1400 nM

THADAHTQL
Kd (HLA-B*46:01): ≥ 20000 nM | Kd (HLA-B*15:17): ≥ 20000 nM | Kd (HLA-A*02:12): ≥ 20000 nM | Kd (HLA-A*29:02): ≥ 20000 nM | Kd (HLA-A*02:19): ≥ 20000 nM | Kd (HLA-A*03:01): ≥ 20000 nM | Kd (HLA-B*15:01): ≥ 20000 nM | Kd (HLA-A*02:03): ≥ 20000 nM | Kd (HLA-B*57:01): ≥ 20000 nM | Kd (HLA-A*24:03 [1]; source organism: Toxoplasma gondii RH): ≥ 20000 nM | Kd (HLA-A*02:11): ≥ 20000 nM | Kd (HLA-B*27:03): ≥ 20000 nM | Kd (HLA-B*18:01): ≥ 20000 nM | Kd (HLA-A*02:01): ≥ 20000 nM | Kd (HLA-A*69:01): ≥ 20000 nM | Kd (HLA-B*51:01 [2]): ≥ 20000 nM | Kd (HLA-A*26:01): ≥ 20000 nM | Kd (HLA-A*02:16): ≥ 20000 nM

AYPELACAV
Kd (HLA-A*24:03 [3]): 406 nM | Kd (HLA-C*14:02; source organism: Escherichia coli str. K-12 substr. MG1655): ≤ 1 nM

RYMYIYLFI
Kd (HLA-A*24:02; [6]): 3.6 nM | Kd (HLA-C*06:02): ≥ 20000 nM | Kd (HLA-A*24:03 [1]; [6]): 4 nM

LPMIIGEPI
Kd (HLA-C*05:01): ≥ 20000 nM | Kd (HLA-B*54:01): 1.57 nM | Kd (HLA-B*07:02): 0.255 nM | Kd (HLA-B*35:01): 64.5 nM | Kd (HLA-B*53:01): 5.6 nM | Kd (HLA-B*51:01 [4]): 1.17 nM

RYSKKFKPEI
Kd (HLA-A*24:02; source organism: Influenza A virus (A/Swine/Indiana/9K035/99 (H1N2))): 33 nM

YTASVVAAY
Kd (HLA-C*14:02; source organism: Homo sapiens): 98 nM | Kd (HLA-C*15:02; source organism: Homo sapiens): ≥ 20000 nM
